In one assay the target is HLA-B*1402 (human). Briefly: Luminex beads; MAb 1/1600; competitor IgG-free serum.
The target in a further assay is HLA-Cw*1701 (human). Described as above.
In a further assay the target is HLA-Cw*0303 (human). Described as above.
A further assay concerns the target HLA-B*5201 (human). The assay is described as above.
The target of a further assay is HLA-B*4801 (human) (UniProt P01889). The assay is described as above.
Another assay addresses HLA-B*4101 (human) (UniProt P01889). Described as above.
For a further assay, the target named is HLA-Cw*0304 (human). The description is as above.
In a further assay the target is HLA-Cw*1402 (human) (UniProt P10321). The description is as above.
In a further assay the target is HLA-B*5801 (human). The assay is described as above.
Another assay deals with HLA-Cw*1502 (human). The assay is described as above.
Another assay addresses HLA-Cw*0702 (human) (UniProt P10321). Described as above.
The target of the next assay is HLA-B*1502 (human). The assay is described as above.
In a further assay the target is HLA-B*5101 (human). The assay is described as above.
For assay [1], the target named is HLA-Cw*0801 (human) (UniProt P10321). Described as above.
The target of a further assay is HLA-B*1511 (human) (UniProt P01889). The description is as above.
Assay [2] addresses HLA-Cw*0302 (human) (UniProt P10321). Described as above.
For the next assay, the target named is HLA-B*2708 (human) (UniProt P01889). The description is as above.
The target in another assay is HLA-B*4402 (human). Described as above.
A further assay concerns the target HLA-B*4002 (human) (UniProt P01889). The description is as above.
For assay [3], the target named is HLA-Cw*0801 (human) (UniProt P10321). Nature of the assay: Luminex beads; MAb 1/100; competitor IgG-free serum.
Assay [4] deals with HLA-Cw*0302 (human) (UniProt P10321). Described as above.
In assay [5] the target is HLA-Cw*0801 (Cw8) (human) (UniProt P10321). Briefly: Luminex single-antigen beads; rank of MEM-E/02 reactivity among HLA-Ia alleles.
In another assay the target is HLA-A*2601 (A26) (human). Described as above.
Another assay deals with HLA-A*2901 (A29) (human) (UniProt P04439). The description is as above.
A further assay concerns the target HLA-B*4403 (B44) (human). The description is as above.
The target of another assay is HLA-B*6701 (B67) (human) (UniProt P01889). The assay is described as above.
The target in the next assay is HLA-A*2501 (A25) (human). The description is as above.
Assay [6] has as its target HLA-Cw*1502 (Cw15) (human). Described as above.
The next assay concerns the target HLA-B*1513 (B77) (human). The description is as above.
In the next assay the target is HLA-B*0801 (B8) (human) (UniProt P01889). The description is as above.
The next assay addresses HLA-A*2403 (A24) (human). Described as above.
For a further assay, the target named is HLA-A*3201 (A32) (human). Described as above.
A further assay addresses HLA-B*1801 (B18) (human). The assay is described as above.
A further assay concerns the target HLA-B*1401 (B64) (human) (UniProt P01889). The assay is described as above.
The target in a further assay is HLA-B*2708 (B27) (human) (UniProt P01889). Described as above.
Assay [7] deals with HLA-Cw*1701 (Cw17) (human). The assay is described as above.
The target of a further assay is HLA-B*5901 (B59) (human). The assay is described as above.
The target of another assay is HLA-B*1516 (B63) (human). The description is as above.
In another assay the target is HLA-B*3801 (B38) (human). Described as above.
Assay [8] addresses HLA-Cw*0401 (Cw4) (human). The assay is described as above.
The target of assay [9] is HLA-Cw*1203 (Cw12) (human) (UniProt P10321). Described as above.

On to “murine monoclonal antibody (MAb) MEM-E/02”, for which the MFI turned out to be 301 MFI with HLA-B*1402 (human); 392 MFI in the assay with HLA-Cw*1701 (human); 332 MFI with HLA-Cw*0303 (human); 337 MFI with HLA-B*5201 (human); 412 MFI with HLA-B*4801 (human); 392 MFI in the assay with HLA-B*4101 (human). The MFI with HLA-Cw*0304 (human) amounted to 370 MFI; with HLA-Cw*1402 (human), 432 MFI; in the assay with HLA-B*5801 (human) it was 485 MFI; with HLA-Cw*1502 (human), 317 MFI; with HLA-Cw*0702 (human) it was 295 MFI; in the assay with HLA-B*1502 (human) it was 350 MFI. The MFI in the assay with HLA-B*5101 (human) turned out to be 281 MFI; with HLA-Cw*0801 (human) [1], 865 MFI; with HLA-B*1511 (human) it was 388 MFI; in the assay with HLA-Cw*0302 (human) [2], 335 MFI; with HLA-B*2708 (human), 272 MFI; with HLA-B*4402 (human), 248 MFI. Moreover, the MFI with HLA-B*4002 (human) amounted to 403 MFI; with HLA-Cw*0801 (human) [3], 6070 MFI; with HLA-Cw*0302 (human) [4], 2200 MFI.
Consider murine monoclonal antibody MAb MEM-E/02, for which the MEM-E/02 Reactivity Rank in assay [5] was 8 rank; with HLA-A*2601 (A26) (human) it was 60 rank; with HLA-A*2901 (A29) (human), 48 rank; in the assay with HLA-B*4403 (B44) (human), more than 65 rank; with HLA-B*6701 (B67) (human), more than 65 rank; with HLA-A*2501 (A25) (human) it was more than 65 rank. Further, the MEM-E/02 Reactivity Rank was more than 65 rank in assay [6]; 41 rank with HLA-B*1513 (B77) (human); more than 65 rank with HLA-B*0801 (B8) (human); 63 rank with HLA-A*2403 (A24) (human); more than 65 rank with HLA-A*3201 (A32) (human); 36 rank with HLA-B*1801 (B18) (human). Further, the MEM-E/02 Reactivity Rank with HLA-B*1401 (B64) (human) is 7 rank; with HLA-B*2708 (B27) (human), more than 65 rank; in assay [7] it was 28 rank; in the assay with HLA-B*5901 (B59) (human), 20 rank; in the assay with HLA-B*1516 (B63) (human), 43 rank; in the assay with HLA-B*3801 (B38) (human), more than 65 rank. Also, the MEM-E/02 Reactivity Rank in assay [8] is more than 65 rank; in assay [9] it was 36 rank.

The values above are taken from US20120171195A1.
